Among the data in patent US20140087995A1 (published 2014) are IC50 values, retold here.

B1: N^ε1-[(4S)-4-carboxy-4-(19-carboxynonadecanoylamino)butanoyl]-[Glu14,Arg17,Pro21,Pro27,Pro34,Arg35]-h-amylin (peptide)
peptide: K([γGlu-C20 diacid])CNTATCATQRLAEFLRHSSPNFGAIPSSTNVGPRTY-NH2
modifications: disulfide 2-7; N-terminus assumed
SMILES: CC[C@H](C)[C@H](NC(=O)[C@H](C)NC(=O)CNC(=O)[C@H](Cc1ccccc1)NC(=O)[C@H](CC(N)=O)NC(=O)[C@@H]1CCCN1C(=O)[C@H](CO)NC(=O)[C@H](CO)NC(=O)[C@H](Cc1c[nH]cn1)NC(=O)[C@H](CCCNC(=N)N)NC(=O)[C@H](CC(C)C)NC(=O)[C@H](Cc1ccccc1)NC(=O)[C@H](CCC(=O)O)NC(=O)[C@H](C)NC(=O)[C@H](CC(C)C)NC(=O)[C@H](CCCNC(=N)N)NC(=O)[C@H](CCC(N)=O)NC(=O)[C@@H](NC(=O)[C@H](C)NC(=O)[C@@H]1CSSC[C@H](NC(=O)[C@@H](N)CCCCNC(=O)CC[C@H](NC(=O)CCCCCCCCCCCCCCCCCCC(=O)O)C(=O)O)C(=O)N[C@@H](CC(N)=O)C(=O)N[C@@H]([C@@H](C)O)C(=O)N[C@@H](C)C(=O)N[C@@H]([C@@H](C)O)C(=O)N1)[C@@H](C)O)C(=O)N1CCC[C@H]1C(=O)N[C@@H](CO)C(=O)N[C@@H](CO)C(=O)N[C@H](C(=O)N[C@@H](CC(N)=O)C(=O)N[C@H](C(=O)NCC(=O)N1CCC[C@H]1C(=O)N[C@@H](CCCNC(=N)N)C(=O)N[C@H](C(=O)N[C@@H](Cc1ccc(O)cc1)C(N)=O)[C@@H](C)O)C(C)C)[C@@H](C)O
notes: modifications are with respect to human amylin
B2: N^ε1-[(4S)-4-carboxy-4-[[(4S)-4-carboxy-4-(19-carboxynonadecanoylamino)butanoyl]amino]butanoyl]-[Arg17,Pro21,Pro27,Pro31,Pro34,Arg35]-h-amylin (peptide)
peptide: K([γGlu-γGlu-C20 diacid])CNTATCATQRLANFLRHSSPNFGAIPSSTPVGPRTY-NH2
modifications: disulfide 2-7; N-terminus assumed
SMILES: CC[C@H](C)[C@H](NC(=O)[C@H](C)NC(=O)CNC(=O)[C@H](Cc1ccccc1)NC(=O)[C@H](CC(N)=O)NC(=O)[C@@H]1CCCN1C(=O)[C@H](CO)NC(=O)[C@H](CO)NC(=O)[C@H](Cc1c[nH]cn1)NC(=O)[C@H](CCCNC(=N)N)NC(=O)[C@H](CC(C)C)NC(=O)[C@H](Cc1ccccc1)NC(=O)[C@H](CC(N)=O)NC(=O)[C@H](C)NC(=O)[C@H](CC(C)C)NC(=O)[C@H](CCCNC(=N)N)NC(=O)[C@H](CCC(N)=O)NC(=O)[C@@H](NC(=O)[C@H](C)NC(=O)[C@@H]1CSSC[C@H](NC(=O)[C@@H](N)CCCCNC(=O)CC[C@H](NC(=O)CC[C@H](NC(=O)CCCCCCCCCCCCCCCCCCC(=O)O)C(=O)O)C(=O)O)C(=O)N[C@@H](CC(N)=O)C(=O)N[C@@H]([C@@H](C)O)C(=O)N[C@@H](C)C(=O)N[C@@H]([C@@H](C)O)C(=O)N1)[C@@H](C)O)C(=O)N1CCC[C@H]1C(=O)N[C@@H](CO)C(=O)N[C@@H](CO)C(=O)N[C@H](C(=O)N1CCC[C@H]1C(=O)N[C@H](C(=O)NCC(=O)N1CCC[C@H]1C(=O)N[C@@H](CCCNC(=N)N)C(=O)N[C@H](C(=O)N[C@@H](Cc1ccc(O)cc1)C(N)=O)[C@@H](C)O)C(C)C)[C@@H](C)O
notes: as for B1
B3: N^ε1-[(4S)-4-carboxy-4-(19-carboxynonadecanoylamino)butanoyl]-[Glu14,Arg17,Pro21,Pro27,Pro34,His35]-h-amylin (peptide)
peptide: K([γGlu-C20 diacid])CNTATCATQRLAEFLRHSSPNFGAIPSSTNVGPHTY-NH2
modifications: disulfide 2-7
notes: as for B1
B4: N^ε1-[(4S)-4-carboxy-4-(19-carboxynonadecanoylamino)butanoyl]-[His14,Arg17,Pro21,Pro27,Pro31,Pro34]-h-amylin (peptide)
peptide: K([γGlu-C20 diacid])CNTATCATQRLAHFLRHSSPNFGAIPSSTPVGPNTY-NH2
modifications: disulfide 2-7; N-terminus assumed
SMILES: CC[C@H](C)[C@H](NC(=O)[C@H](C)NC(=O)CNC(=O)[C@H](Cc1ccccc1)NC(=O)[C@H](CC(N)=O)NC(=O)[C@@H]1CCCN1C(=O)[C@H](CO)NC(=O)[C@H](CO)NC(=O)[C@H](Cc1c[nH]cn1)NC(=O)[C@H](CCCNC(=N)N)NC(=O)[C@H](CC(C)C)NC(=O)[C@H](Cc1ccccc1)NC(=O)[C@H](Cc1c[nH]cn1)NC(=O)[C@H](C)NC(=O)[C@H](CC(C)C)NC(=O)[C@H](CCCNC(=N)N)NC(=O)[C@H](CCC(N)=O)NC(=O)[C@@H](NC(=O)[C@H](C)NC(=O)[C@@H]1CSSC[C@H](NC(=O)[C@@H](N)CCCCNC(=O)CC[C@H](NC(=O)CCCCCCCCCCCCCCCCCCC(=O)O)C(=O)O)C(=O)N[C@@H](CC(N)=O)C(=O)N[C@@H]([C@@H](C)O)C(=O)N[C@@H](C)C(=O)N[C@@H]([C@@H](C)O)C(=O)N1)[C@@H](C)O)C(=O)N1CCC[C@H]1C(=O)N[C@@H](CO)C(=O)N[C@@H](CO)C(=O)N[C@H](C(=O)N1CCC[C@H]1C(=O)N[C@H](C(=O)NCC(=O)N1CCC[C@H]1C(=O)N[C@@H](CC(N)=O)C(=O)N[C@H](C(=O)N[C@@H](Cc1ccc(O)cc1)C(N)=O)[C@@H](C)O)C(C)C)[C@@H](C)O
notes: as for B1
B5: N^ε1-[(4S)-4-carboxy-4-[[(4S)-4-carboxy-4-(19-carboxynonadecanoylamino)butanoyl]amino]butanoyl]-[D-Asp14,Arg17,Pro21,Pro27,Arg35]-h-amylin (peptide)
peptide: K([γGlu-γGlu-C20 diacid])CNTATCATQRLA[dD]FLRHSSPNFGAIPSSTNVGSRTY-NH2
modifications: disulfide 2-7; N-terminus assumed
SMILES: CC[C@H](C)[C@H](NC(=O)[C@H](C)NC(=O)CNC(=O)[C@H](Cc1ccccc1)NC(=O)[C@H](CC(N)=O)NC(=O)[C@@H]1CCCN1C(=O)[C@H](CO)NC(=O)[C@H](CO)NC(=O)[C@H](Cc1c[nH]cn1)NC(=O)[C@H](CCCNC(=N)N)NC(=O)[C@H](CC(C)C)NC(=O)[C@H](Cc1ccccc1)NC(=O)[C@@H](CC(=O)O)NC(=O)[C@H](C)NC(=O)[C@H](CC(C)C)NC(=O)[C@H](CCCNC(=N)N)NC(=O)[C@H](CCC(N)=O)NC(=O)[C@@H](NC(=O)[C@H](C)NC(=O)[C@@H]1CSSC[C@H](NC(=O)[C@@H](N)CCCCNC(=O)CC[C@H](NC(=O)CC[C@H](NC(=O)CCCCCCCCCCCCCCCCCCC(=O)O)C(=O)O)C(=O)O)C(=O)N[C@@H](CC(N)=O)C(=O)N[C@@H]([C@@H](C)O)C(=O)N[C@@H](C)C(=O)N[C@@H]([C@@H](C)O)C(=O)N1)[C@@H](C)O)C(=O)N1CCC[C@H]1C(=O)N[C@@H](CO)C(=O)N[C@@H](CO)C(=O)N[C@H](C(=O)N[C@@H](CC(N)=O)C(=O)N[C@H](C(=O)NCC(=O)N[C@@H](CO)C(=O)N[C@@H](CCCNC(=N)N)C(=O)N[C@H](C(=O)N[C@@H](Cc1ccc(O)cc1)C(N)=O)[C@@H](C)O)C(C)C)[C@@H](C)O
B6: N^ε1-[(4S)-4-carboxy-4-[[(4S)-4-carboxy-4-(19-carboxynonadecanoylamino)butanoyl]amino]butanoyl]-[Glu14,Arg17,Pro21,Pro27,Arg34,Glu35]-h-amylin (peptide)
peptide: K([γGlu-γGlu-C20 diacid])CNTATCATQRLAEFLRHSSPNFGAIPSSTNVGRETY-NH2
modifications: disulfide 2-7; N-terminus assumed
SMILES: CC[C@H](C)[C@H](NC(=O)[C@H](C)NC(=O)CNC(=O)[C@H](Cc1ccccc1)NC(=O)[C@H](CC(N)=O)NC(=O)[C@@H]1CCCN1C(=O)[C@H](CO)NC(=O)[C@H](CO)NC(=O)[C@H](Cc1c[nH]cn1)NC(=O)[C@H](CCCNC(=N)N)NC(=O)[C@H](CC(C)C)NC(=O)[C@H](Cc1ccccc1)NC(=O)[C@H](CCC(=O)O)NC(=O)[C@H](C)NC(=O)[C@H](CC(C)C)NC(=O)[C@H](CCCNC(=N)N)NC(=O)[C@H](CCC(N)=O)NC(=O)[C@@H](NC(=O)[C@H](C)NC(=O)[C@@H]1CSSC[C@H](NC(=O)[C@@H](N)CCCCNC(=O)CC[C@H](NC(=O)CC[C@H](NC(=O)CCCCCCCCCCCCCCCCCCC(=O)O)C(=O)O)C(=O)O)C(=O)N[C@@H](CC(N)=O)C(=O)N[C@@H]([C@@H](C)O)C(=O)N[C@@H](C)C(=O)N[C@@H]([C@@H](C)O)C(=O)N1)[C@@H](C)O)C(=O)N1CCC[C@H]1C(=O)N[C@@H](CO)C(=O)N[C@@H](CO)C(=O)N[C@H](C(=O)N[C@@H](CC(N)=O)C(=O)N[C@H](C(=O)NCC(=O)N[C@@H](CCCNC(=N)N)C(=O)N[C@@H](CCC(=O)O)C(=O)N[C@H](C(=O)N[C@@H](Cc1ccc(O)cc1)C(N)=O)[C@@H](C)O)C(C)C)[C@@H](C)O
notes: as for B1
B7: N^ε1-[(4S)-4-carboxy-4-[[(4S)-4-carboxy-4-(19-carboxynonadecanoylamino)butanoyl]amino]butanoyl]-[Asp14,Arg17,Pro21,Pro27,Pro34,Glu35]-h-amylin (peptide)
peptide: K([γGlu-γGlu-C20 diacid])CNTATCATQRLADFLRHSSPNFGAIPSSTNVGPETY-NH2
modifications: disulfide 2-7
notes: as for B1
B8: N^ε1-[(4S)-4-carboxy-4-[[(4S)-4-carboxy-4-(19-carboxynonadecanoylamino)butanoyl]amino]butanoyl]-[Asp14,Arg17,Pro21,Pro27,Pro34,Arg35]-h-amylin (peptide)
peptide: K([γGlu-γGlu-C20 diacid])CNTATCATQRLADFLRHSSPNFGAIPSSTNVGPRTY-NH2
modifications: disulfide 2-7
notes: modifications are with respect to human amylin; also called compound 130

As a reminder, the IC50 is the midpoint of a concentration-inhibition curve.

Numbered stars: 1 amine (or outer) side, 2 acyl side, 3 side chain; on linkers, the order of the positions; unused ones are H or OH. Bridge positions count the residues as written; N and C are the ends. Square brackets hold non-standard residues; d marks the D form. Side chains are listed from the residue outwards. Ends that are not written are not given here. * marks the point of attachment. C20 diacid = O=C(O)CCCCCCCCCCCCCCCCCCC(=O)*; γGlu = O=C(O)[C@H](CCC(=O)[*:2])N[*:1]

The test addresses T1, human amylin receptor (Amylin 3(a) receptor: human calcitonin receptor co-expressed with RAMP-3) (human, UniProt P30988 25-474; O60896 24-148, limits assumed).
T1 construct: whole, on cells; Used as cell membranes prepared from the Amylin 3(a)/CRE-luc BHK cells (Assay V); the complex is called the human amylin receptor; also called hAmylin-R; hAmylinR
T1 sequence (looked up) 1: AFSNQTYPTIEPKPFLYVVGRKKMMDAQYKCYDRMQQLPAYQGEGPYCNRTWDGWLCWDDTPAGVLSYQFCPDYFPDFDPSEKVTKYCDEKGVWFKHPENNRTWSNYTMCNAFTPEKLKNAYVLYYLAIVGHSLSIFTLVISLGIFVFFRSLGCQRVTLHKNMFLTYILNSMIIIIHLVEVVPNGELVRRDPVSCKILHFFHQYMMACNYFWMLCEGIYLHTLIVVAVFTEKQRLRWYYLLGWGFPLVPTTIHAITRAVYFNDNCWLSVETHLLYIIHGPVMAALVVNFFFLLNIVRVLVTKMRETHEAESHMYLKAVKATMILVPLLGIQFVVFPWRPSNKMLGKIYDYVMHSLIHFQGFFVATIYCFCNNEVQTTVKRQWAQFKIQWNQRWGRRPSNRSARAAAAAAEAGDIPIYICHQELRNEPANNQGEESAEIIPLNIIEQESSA
T1 sequence (looked up) 2: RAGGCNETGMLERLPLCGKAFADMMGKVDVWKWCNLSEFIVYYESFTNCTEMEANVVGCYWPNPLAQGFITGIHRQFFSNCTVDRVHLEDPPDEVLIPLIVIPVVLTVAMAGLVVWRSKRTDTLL
Put plainly: SPA competition binding, displacement of 125I-rat amylin from membranes of BHK cells with human calcitonin receptor + RAMP-3 (Assay V). Here is the method: The binding assay was performed using scintillation proximity assay (SPA) beads (RPNQ0001) from PerkinElmer and cell membranes from the Amylin 3(a)/CRE-luc cells (as described in Assay (II)) were used. Membranes were prepared in the following way; the cells were rinsed with PBS and incubated with Versene for approximately 5 min before harvesting. The cells were flushed with PBS and the cell-suspension was centrifuged for 5 min at 1000 rpm. Cells were homogenized (ultrathurrax) in a buffer containing 20 mM Na-HEPES and 10 mM EDTA (pH 7.4) and centrifuged at 20.000 rpm for 15 min. The resulting pellet was resuspended, homogenized and centrifuged (20.000 rpm, 15 min) in a buffer containing 20 mM Na-HEPES and 0.1 mM EDTA (pH 7.4, buffer 2). The resulting pellet was resuspended in buffer 2 and protein concentration was measured (BCA protein Assay, Pierce). The homogenate was kept cold during the whole procedure. The membranes were kept at −80° C. until use. The assay was performed in a 384 well Optiplate (PerkinElmer) in a total volume of 40 ul. Membranes were mixed with SPA beads. Final concentration of membranes 35 ng/μL final and SPA beads was 0.05 mg/well. Test-compounds were dissolved in DMSO and further diluted in assay buffer (50 mM Hepes, pH 7.4, 1 mM CaCl2, 5 mM MgCl₂, 0.1% OA and 0.02% Tween20). […] The final mixture was incubated with shaking at 400 rpm for 120 min at 25° C. prior to centrifugation (1500 rpm, 10 min). Samples were analyzed on TopCounter™ (Packard). The IC₅₀ was calculated using (one site binding competition analysis) GraphPad Prism5 as a measure of receptor affinity.
B1: the IC50 stood at 0.163 nM.

In the case of B2, the IC50 came to 0.88 nM.

As to B3, the concentration for half-maximal inhibition (IC50) was 0.179 nM.

For the molecule B4, the half-maximal inhibitory concentration (IC50) is 0.082 nM.

B5: the IC50 worked out at 0.365 nM.

As for B6, the concentration for half-maximal inhibition (IC50) turned out to be 0.957 nM.

B7: the IC50 stood at 0.172 nM.

Take B8: the IC50 stood at 0.453 nM.
